Test results taken from patent US6541002.

Molecular target: T1, Vpr protein of HIV-1, P12520
T1 chain: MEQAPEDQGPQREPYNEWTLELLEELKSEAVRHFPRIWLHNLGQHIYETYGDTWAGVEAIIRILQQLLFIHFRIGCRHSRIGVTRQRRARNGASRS

| Protein | CAT activity of virions (conversion of chloramphenicol to an acetylated product) | presence of the fusion protein in progeny virions (Western blotting) |
| --- | --- | --- |
| chloramphenicol acetyltransferase (CAT) (protein) MEKKITGYTTVDISQWHRKEHFEAFQSVAQCTYNQTVQLDITAFLKTVKKNKHKFYPAFIHILARLMNAHPEFRMAMKDGELVIWDSVHPCYTVFHEQTETFSSLWSEYHDDFRQFLHIYSQDVACYGENLAYFPKGFIENMFFVSANPWVSFTSFDLNVANMDNFFAPVFTMGKYYTQGDKVLMPLAIQVHHAVCDGFHVGRMLNELQQYCDEWQGGA | CAT activity exhibited by virions which were generated by Vpr^-/WF-CAT cells was comparable to CAT activity exhibited by virions which were generated by WT/CAT cells (each 8% conversion | – |
| dWF-CAT chimeric protein (protein) MQPWWAFFGGGSSWWSFSMGPTRMEKKITGYTTVDISQWHRKEHFEAFQSVAQCTYNQTVQLDITAFLKTVKKNKHKFYPAFIHILARLMNAHPEFRMAMKDGELVIWDSVHPCYTVFHEQTETFSSLWSEYHDDFRQFLHIYSQDVACYGENLAYFPKGFIENMFFVSANPWVSFTSFDLNVANMDNFFAPVFTMGKYYTQGDKVLMPLAIQVHHAVCDGFHVGRMLNELQQYCDEWQGGA | virions which were generated by WT/WF-CAT cells exhibited significantly higher CAT activity (28% conversion of chloramphenicol to an acetylated product) than virions which were generated by Vpr^-/WF-CAT cells (8% conversion) | – |
| dWF-IN fusion protein (protein) MQPWWAFFGGGSSWWSFSMGPTRFLDGIDKAQEEHEKYHSNWRAMASDFNLPPVVAKEIVASCDKCQLKGEAMHGQVDCSPGIWQLDCTHLEGKVILVAVHVASGYIEAEVIPAETGQETAYFLLKLAGRWPVKTVHTDNGSNFTSTTVKAACWWAGIKQEFGIPYNPQSQGVIESMNKELKKIIGQVRDQAEHLKTAVQMAVFIHNFKRKGGIGGYSAGERIVDIIATDIQTKELQKQITKIQNFRVYYRDSRDPVWKGPAKLLWKGEGAVVIQDNSDIKVVPRRKAKIIRDYGKQMAGDDCVASRQDED | – | the presence of dWF-fusion proteins in progeny virions was dependent on expression of Vpr in cells in which the progeny virions were produced |
| dWF-PR-IN fusion protein (protein) MQPWWAFFGGGSSWWSFSMGPTRFLDGIDKAQEEHEKYHSNWRAMASDFNLPPVVAKEIVASCDKCQLKGEAMHGQVDCSPGIWQLDCTHLEGKVILVAVHVASGYIEAEVIPAETGQETAYFLLKLAGRWPVKTVHTDNGSNFTSTTVKAACWWAGIKQEFGIPYNPQSQGVIESMNKELKKIIGQVRDQAEHLKTAVQMAVFIHNFKRKGGIGGYSAGERIVDIIATDIQTKELQKQITKIQNFRVYYRDSRDPVWKGPAKLLWKGEGAVVIQDNSDIKVVPRRKAKIIRDYGKQMAGDDCVASRQDED | – | the presence of dWF-fusion proteins in progeny virions was dependent on expression of Vpr in cells in which the progeny virions were produced |
